Starred links: 1 amine or outer side, 2 acyl side, 3 side chain; linkers in the order of their positions; H or OH if unused. Non-standard residues stand in square brackets, D forms with d. Groups on a side chain read outwards from the residue. No end group written: not given here. *: point of attachment. C20 diacid = O=C(O)CCCCCCCCCCCCCCCCCCC(=O)*; γGlu = O=C(O)[C@H](CCC(=O)[*:2])N[*:1]; αMeL = CC(C)C[C@](C)(N)C(=O)O; AEEA = NCCOCCOCC(=O)O; Aib = CC(C)(N)C(=O)O
Key:
[1] = target: T1, human glucagon receptor (human, UniProt P47871 26-477); test: SPA, displacement of [125I]-Gcg from hGcgR membranes, 0.1% bacitracin
T1 construct: whole, on cells; Assayed as crude membranes of stably transfected HEK293 cells; also called hGcgR; GcgR
In short: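 Binding buffer: 25 mM HEPES pH 7.4, 2.5 mM CaCl₂, 1 mM MgCl₂, 0.003% Tween-20, protease inhibitors without EDTA. Counted by scintillation after 12 h incubation/settling at room temperature. Four-parameter nonlinear fit; Kᵢ given as geometric mean ± SEM of independent replicates run on different days.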

[2] = target: T2, human GLP-1 receptor (human, UniProt P43220 24-463); test: SPA, displacement of [125I]-GLP-1 from hGLP-1R membranes, 0.1% bacitracin
T2 construct: whole, on cells; Assayed as crude membranes of stably transfected HEK293 cells; also called hGLP1R; hGLP-1R
In short: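 Binding buffer: 25 mM HEPES pH 7.4, 2.5 mM CaCl₂, 1 mM MgCl₂, 0.1% bacitracin, 0.003% Tween-20, protease inhibitors without EDTA. Four-parameter nonlinear regression; Kᵢ given as geometric mean ± SEM, n = independent replicates run on different days.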

[3] = target: T3, human glucose-dependent insulinotropic polypeptide (GIP) receptor (human, UniProt P48546 22-466); test: SPA, displacement of [125I]-GIP from hGIPR membranes, 0.1% bacitracin
T3 construct: whole, on cells; Assayed as crude membranes of stably transfected CHO cells; also called hGIPR; human GIP receptor
T3 sequence (looked up): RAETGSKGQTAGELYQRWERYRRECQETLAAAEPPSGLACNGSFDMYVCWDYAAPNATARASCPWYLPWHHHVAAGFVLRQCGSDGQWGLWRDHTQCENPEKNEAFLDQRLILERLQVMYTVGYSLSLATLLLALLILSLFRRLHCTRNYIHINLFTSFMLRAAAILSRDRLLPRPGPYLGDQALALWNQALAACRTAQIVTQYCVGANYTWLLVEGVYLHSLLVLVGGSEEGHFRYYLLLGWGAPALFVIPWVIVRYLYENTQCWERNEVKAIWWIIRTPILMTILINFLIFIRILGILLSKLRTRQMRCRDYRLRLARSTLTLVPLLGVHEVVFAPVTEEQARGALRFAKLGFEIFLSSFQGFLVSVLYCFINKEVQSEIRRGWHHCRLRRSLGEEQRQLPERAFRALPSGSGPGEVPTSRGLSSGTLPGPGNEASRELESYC

T1 sequence (P47871 26-477): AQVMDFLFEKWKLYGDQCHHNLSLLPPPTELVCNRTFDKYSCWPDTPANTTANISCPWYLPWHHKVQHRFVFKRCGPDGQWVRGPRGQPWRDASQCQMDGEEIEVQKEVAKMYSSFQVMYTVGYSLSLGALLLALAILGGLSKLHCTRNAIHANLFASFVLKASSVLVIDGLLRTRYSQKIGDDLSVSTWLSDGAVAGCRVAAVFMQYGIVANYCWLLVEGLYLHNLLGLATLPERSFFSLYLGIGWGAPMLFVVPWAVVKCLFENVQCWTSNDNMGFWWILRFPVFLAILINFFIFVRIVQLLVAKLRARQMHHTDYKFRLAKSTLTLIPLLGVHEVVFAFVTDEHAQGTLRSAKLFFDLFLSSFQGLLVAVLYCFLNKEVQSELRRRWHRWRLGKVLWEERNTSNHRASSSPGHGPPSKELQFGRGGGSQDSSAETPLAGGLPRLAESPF

B1: Example 65 (peptide)
peptide: Y[Aib]EGTFISDYSI[αMeL]LDKK([AEEA-AEEA-γGlu-C20 diacid])HQ[Aib]EFVEYLLEAGPSSGAPPPS-NH2
modifications: N-terminus assumed
SMILES: CC[C@H](C)[C@H](NC(=O)[C@H](Cc1ccccc1)NC(=O)[C@@H](NC(=O)CNC(=O)[C@H](CCC(=O)O)NC(=O)C(C)(C)NC(=O)[C@@H](N)Cc1ccc(O)cc1)[C@@H](C)O)C(=O)N[C@@H](CO)C(=O)N[C@@H](CC(=O)O)C(=O)N[C@@H](Cc1ccc(O)cc1)C(=O)N[C@@H](CO)C(=O)N[C@H](C(=O)N[C@@](C)(CC(C)C)C(=O)N[C@@H](CC(C)C)C(=O)N[C@@H](CC(=O)O)C(=O)N[C@@H](CCCCN)C(=O)N[C@@H](CCCCNC(=O)COCCOCCNC(=O)COCCOCCNC(=O)CC[C@H](NC(=O)CCCCCCCCCCCCCCCCCCC(=O)O)C(=O)O)C(=O)N[C@@H](Cc1c[nH]cn1)C(=O)N[C@@H](CCC(N)=O)C(=O)NC(C)(C)C(=O)N[C@@H](CCC(=O)O)C(=O)N[C@@H](Cc1ccccc1)C(=O)N[C@H](C(=O)N[C@@H](CCC(=O)O)C(=O)N[C@@H](Cc1ccc(O)cc1)C(=O)N[C@@H](CC(C)C)C(=O)N[C@@H](CC(C)C)C(=O)N[C@@H](CCC(=O)O)C(=O)N[C@@H](C)C(=O)NCC(=O)N1CCC[C@H]1C(=O)N[C@@H](CO)C(=O)N[C@@H](CO)C(=O)NCC(=O)N[C@@H](C)C(=O)N1CCC[C@H]1C(=O)N1CCC[C@H]1C(=O)N1CCC[C@H]1C(=O)N[C@@H](CO)C(N)=O)C(C)C)[C@@H](C)CC
B1 gave a Ki [1] of 279 nM, a Ki [2] of 305 nM and a Ki [3] of 0.0316 nM.

B2: Example 71 (peptide)
peptide: Y[Aib]EGTFISDYSI[αMeL]LDKK([AEEA-AEEA-γGlu-C20 diacid])HQ[Aib]DFVEWLLETGPSSGAPPPS-NH2
modifications: N-terminus assumed
SMILES: CC[C@H](C)[C@H](NC(=O)[C@H](Cc1ccccc1)NC(=O)[C@@H](NC(=O)CNC(=O)[C@H](CCC(=O)O)NC(=O)C(C)(C)NC(=O)[C@@H](N)Cc1ccc(O)cc1)[C@@H](C)O)C(=O)N[C@@H](CO)C(=O)N[C@@H](CC(=O)O)C(=O)N[C@@H](Cc1ccc(O)cc1)C(=O)N[C@@H](CO)C(=O)N[C@H](C(=O)N[C@@](C)(CC(C)C)C(=O)N[C@@H](CC(C)C)C(=O)N[C@@H](CC(=O)O)C(=O)N[C@@H](CCCCN)C(=O)N[C@@H](CCCCNC(=O)COCCOCCNC(=O)COCCOCCNC(=O)CC[C@H](NC(=O)CCCCCCCCCCCCCCCCCCC(=O)O)C(=O)O)C(=O)N[C@@H](Cc1c[nH]cn1)C(=O)N[C@@H](CCC(N)=O)C(=O)NC(C)(C)C(=O)N[C@@H](CC(=O)O)C(=O)N[C@@H](Cc1ccccc1)C(=O)N[C@H](C(=O)N[C@@H](CCC(=O)O)C(=O)N[C@@H](Cc1c[nH]c2ccccc12)C(=O)N[C@@H](CC(C)C)C(=O)N[C@@H](CC(C)C)C(=O)N[C@@H](CCC(=O)O)C(=O)N[C@H](C(=O)NCC(=O)N1CCC[C@H]1C(=O)N[C@@H](CO)C(=O)N[C@@H](CO)C(=O)NCC(=O)N[C@@H](C)C(=O)N1CCC[C@H]1C(=O)N1CCC[C@H]1C(=O)N1CCC[C@H]1C(=O)N[C@@H](CO)C(N)=O)[C@@H](C)O)C(C)C)[C@@H](C)CC
For B2, the Ki [1] was 102 nM, the Ki [2] was 347 nM and the Ki [3] was 0.0422 nM.

B3: Example 68 (peptide)
peptide: Y[Aib]EGTFISDYSI[αMeL]LDKK([AEEA-AEEA-γGlu-C20 diacid])HQ[Aib]DFVEYLLEAGPSSGAPPPS-NH2
modifications: N-terminus assumed
SMILES: CC[C@H](C)[C@H](NC(=O)[C@H](Cc1ccccc1)NC(=O)[C@@H](NC(=O)CNC(=O)[C@H](CCC(=O)O)NC(=O)C(C)(C)NC(=O)[C@@H](N)Cc1ccc(O)cc1)[C@@H](C)O)C(=O)N[C@@H](CO)C(=O)N[C@@H](CC(=O)O)C(=O)N[C@@H](Cc1ccc(O)cc1)C(=O)N[C@@H](CO)C(=O)N[C@H](C(=O)N[C@@](C)(CC(C)C)C(=O)N[C@@H](CC(C)C)C(=O)N[C@@H](CC(=O)O)C(=O)N[C@@H](CCCCN)C(=O)N[C@@H](CCCCNC(=O)COCCOCCNC(=O)COCCOCCNC(=O)CC[C@H](NC(=O)CCCCCCCCCCCCCCCCCCC(=O)O)C(=O)O)C(=O)N[C@@H](Cc1c[nH]cn1)C(=O)N[C@@H](CCC(N)=O)C(=O)NC(C)(C)C(=O)N[C@@H](CC(=O)O)C(=O)N[C@@H](Cc1ccccc1)C(=O)N[C@H](C(=O)N[C@@H](CCC(=O)O)C(=O)N[C@@H](Cc1ccc(O)cc1)C(=O)N[C@@H](CC(C)C)C(=O)N[C@@H](CC(C)C)C(=O)N[C@@H](CCC(=O)O)C(=O)N[C@@H](C)C(=O)NCC(=O)N1CCC[C@H]1C(=O)N[C@@H](CO)C(=O)N[C@@H](CO)C(=O)NCC(=O)N[C@@H](C)C(=O)N1CCC[C@H]1C(=O)N1CCC[C@H]1C(=O)N1CCC[C@H]1C(=O)N[C@@H](CO)C(N)=O)C(C)C)[C@@H](C)CC
B3 gave a Ki [1] of 290 nM, a Ki [2] of 421 nM and a Ki [3] of 0.0948 nM.

B4: Example 72 (peptide)
peptide: Y[Aib]EGTLISDYSI[αMeL]LDKK([AEEA-AEEA-γGlu-C20 diacid])HQ[Aib]EFVEYLLETGPSSGAPPPS-NH2
modifications: N-terminus assumed
SMILES: CC[C@H](C)[C@H](NC(=O)[C@H](CC(C)C)NC(=O)[C@@H](NC(=O)CNC(=O)[C@H](CCC(=O)O)NC(=O)C(C)(C)NC(=O)[C@@H](N)Cc1ccc(O)cc1)[C@@H](C)O)C(=O)N[C@@H](CO)C(=O)N[C@@H](CC(=O)O)C(=O)N[C@@H](Cc1ccc(O)cc1)C(=O)N[C@@H](CO)C(=O)N[C@H](C(=O)N[C@@](C)(CC(C)C)C(=O)N[C@@H](CC(C)C)C(=O)N[C@@H](CC(=O)O)C(=O)N[C@@H](CCCCN)C(=O)N[C@@H](CCCCNC(=O)COCCOCCNC(=O)COCCOCCNC(=O)CC[C@H](NC(=O)CCCCCCCCCCCCCCCCCCC(=O)O)C(=O)O)C(=O)N[C@@H](Cc1c[nH]cn1)C(=O)N[C@@H](CCC(N)=O)C(=O)NC(C)(C)C(=O)N[C@@H](CCC(=O)O)C(=O)N[C@@H](Cc1ccccc1)C(=O)N[C@H](C(=O)N[C@@H](CCC(=O)O)C(=O)N[C@@H](Cc1ccc(O)cc1)C(=O)N[C@@H](CC(C)C)C(=O)N[C@@H](CC(C)C)C(=O)N[C@@H](CCC(=O)O)C(=O)N[C@H](C(=O)NCC(=O)N1CCC[C@H]1C(=O)N[C@@H](CO)C(=O)N[C@@H](CO)C(=O)NCC(=O)N[C@@H](C)C(=O)N1CCC[C@H]1C(=O)N1CCC[C@H]1C(=O)N1CCC[C@H]1C(=O)N[C@@H](CO)C(N)=O)[C@@H](C)O)C(C)C)[C@@H](C)CC
For B4, the Ki [1] was 837 nM, the Ki [2] was 437 nM and the Ki [3] was 0.0594 nM.

B5: Example 66 (peptide)
peptide: Y[Aib]EGTFISDYSI[αMeL]LDKK([AEEA-AEEA-γGlu-C20 diacid])HQ[Aib]DFVEYLLETGPSSGAPPPS-NH2
modifications: N-terminus assumed
SMILES: CC[C@H](C)[C@H](NC(=O)[C@H](Cc1ccccc1)NC(=O)[C@@H](NC(=O)CNC(=O)[C@H](CCC(=O)O)NC(=O)C(C)(C)NC(=O)[C@@H](N)Cc1ccc(O)cc1)[C@@H](C)O)C(=O)N[C@@H](CO)C(=O)N[C@@H](CC(=O)O)C(=O)N[C@@H](Cc1ccc(O)cc1)C(=O)N[C@@H](CO)C(=O)N[C@H](C(=O)N[C@@](C)(CC(C)C)C(=O)N[C@@H](CC(C)C)C(=O)N[C@@H](CC(=O)O)C(=O)N[C@@H](CCCCN)C(=O)N[C@@H](CCCCNC(=O)COCCOCCNC(=O)COCCOCCNC(=O)CC[C@H](NC(=O)CCCCCCCCCCCCCCCCCCC(=O)O)C(=O)O)C(=O)N[C@@H](Cc1c[nH]cn1)C(=O)N[C@@H](CCC(N)=O)C(=O)NC(C)(C)C(=O)N[C@@H](CC(=O)O)C(=O)N[C@@H](Cc1ccccc1)C(=O)N[C@H](C(=O)N[C@@H](CCC(=O)O)C(=O)N[C@@H](Cc1ccc(O)cc1)C(=O)N[C@@H](CC(C)C)C(=O)N[C@@H](CC(C)C)C(=O)N[C@@H](CCC(=O)O)C(=O)N[C@H](C(=O)NCC(=O)N1CCC[C@H]1C(=O)N[C@@H](CO)C(=O)N[C@@H](CO)C(=O)NCC(=O)N[C@@H](C)C(=O)N1CCC[C@H]1C(=O)N1CCC[C@H]1C(=O)N1CCC[C@H]1C(=O)N[C@@H](CO)C(N)=O)[C@@H](C)O)C(C)C)[C@@H](C)CC
B5 was tested, and the Ki [1] was 279 nM, the Ki [2] was 326 nM and the Ki [3] was 0.0866 nM.

Reference: patent US20210032299A1 (Eli Lilly, published 2021)
